From article PMC3462190, “A Peptidic Unconjugated GRP78/BiP Ligand Modulates the Unfolded Protein Response and Induces Prostate Cancer Cell Death” (PLoS ONE, 2012)
Where no end group is shown, it is not given here.

Assays:
Format in all cases: cell-based
PC3 cells = assay: Clonogenic assay; details: 19-mer expressing vector vs vector control; at least three experiments
Experimental: (§1) Figure 6 Selectivity of action of the Bag-1 peptide. A Amino acid sequence of the 19mer peptide and its deletion mutants. B GST pull-down assay performed incubating 400 µg of 22Rv.1 cell lysate and 25 µg of GST-fused deletion mutants of the 19mer peptide. After the pull-down experiment, Western blots were carried out with anti-GRP78/BiP and GST antibodies. C. Fluorescence polarization (FP) assays with a 10 nM FITC-labeled 7-mer Bag-1 peptide and dilutions of the GST-fused substrate binding domain of GRP78 in 60 µl of Tris-GSH buffer (50 mM Tris, 10 mM reduced glutathione and 0.1% BSA, pH 8.0). Triplicate samples were measured after 5 h of incubation at room temperature with an Infinite F-200 reader (Tecan) with excitation at 490 nm and emission at 535 nm. Binding constants were determined from three independent experiments using non-linear regression in Sigma Plot 10.0. D. Competition assays with a complex of 10 nM of FITC-labeled Bag-1 7-mer peptide and 0.75 mg/ml GST-fused GRP78 substrate binding domain was measured against a dilution series from 100 µM to 0.1 nM of wild-type Bag-1 7-mer peptide (filled line) or triple mutant peptide (dotted line) in 40 µl of Tris-GSH buffer. FITC-peptide and the FITC-peptide-protein complex were used as controls. Fluorescence polarization was determined as described above and IC50 values were determined in Sigma Plot. E. Clonogenic assay in 22Rv.1 cells with pcDNA3 based vectors coding for the N-terminal Bag-1 peptide (positive control), the 19mer and the 19mer mutant fragments as well as the empty expression vector (negative control). Cells were transfected with the indicated constructs and selected in medium containing neomycin. The colonies were stained and quantified. Shown as bar chats are the mean ± SEM of at least three independent experiments with three different plasmid preparations. (*p<0.05). F. In vivo luciferase refolding assay was performed in HEK-293 cells transfected at 70% confluency with 2 µg β-actin-fire fly luciferase construct, 3 µg pcDNA3 empty vector as control or pCMV6-GRP78, 6 µg pcDNA3.1-HA-19-mer or 19-mer mutant peptide and 0.5 µg Renilla luciferase construct to determine the transfection efficiency. Shown as bar charts is the mean of at least three different experiments ± SEM (*p<0.05). G. Clonogenic assay with the indicated malignant (LNCaP, DU145, PC3) and benign (BPH1, PNT2, RWPE1) prostate cell lines transfected with the vector control (black bars) and a vector expressing the 19-mer peptide (white bars). Shown are the mean ± SD of at least three different experiments performed with three different plasmid preparations (*p<0.05). H. Western blot analysis of cell lysates derived from the prostate cancer cells used for the colony forming assay with specific antibodies against GRP78 and β-actin.

LNCaP cells = assay: Clonogenic assay; details: 19-mer expressing vector vs vector control; at least three experiments
Experimental: as §1

PNT-2 cells = assay: Clonogenic assay; details: benign prostate cells, 19-mer vector vs control; at least three experiments
Experimental: as §1

RWPE-1 cells = assay: Clonogenic assay; details: benign prostate cells, 19-mer vector vs control; at least three experiments
Experimental: as §1

[1] = tested on: unfolded protein response in 22Rv.1 cells; assay: UPR modulation, Western blot / PCR in 22Rv.1 cells
Experimental: Unless otherwise stated, stable transfection was carried out in 22Rv.1 or BPH-1 cells with 10 µg of plasmid DNA using FuGene 6™ (Roche Diagnostics Mannheim, Germany) Stably transfected 22Rv.1 cells were selected with 0.8 mg/ml while BPH-1 cell clones were selected with 1.2 mg/ml G418. LNCaP, PC3, DU145, PNT-2 and RWPE-1 cell clones were selected with 1 mg/ml G418. Specific downregulation of GRP78 expression was achieved by transfecting siRNA-duplexes (GRP78∶5′-[…]-3′) twice in 72 h using HiPerfect™ (Qiagen Hilden, Germany). siRNA against GFP (5′-[…]-3′) was used as a control. Western blot analysis was performed as previously described.
Figure 3 The Bag-1 peptide modulates the UPR and sensitizes 22Rv.1 cells to ER-stress. A. UPR modulation upon Bag-1 peptide overexpression. Pooled clones of 22Rv.1 cells transfected with pcDNA3.1-HA-Bag-1 68 amino acid peptide or an empty expression vector were treated with 300 nM thapsigargin (TG) for the indicated time points. Cells were lysed and subjected to Western blot analysis using the indicated antibodies or phospho-specific antibodies. B. The Bag-1 peptide sensitizes 22Rv.1 cells to ER-stress induced apoptosis. Pooled clones of 22Rv.1 transfected with the Bag-1 peptide or the empty expression vector were treated with thapsigargin (TG) or glucose-starved (GS) for 24 h. The cells were lysed and subjected to Western blot analysis using anti-PARP and caspase 4 specific antibodies. Anti-HA antibody was used to detect the HA-Bag-1 peptide. […] C. […] Pooled clones of 22Rv.1 expressing HA-tagged Bag-1 peptide or an empty expression vector were transfected with GRP78/BiP siRNA or control GFP siRNA. The cells were lysed and Western blot was carried out with anti-PARP, anti-GRP78 and anti-HA antibodies. β-actin antibody was used to determine the level of protein loaded on the gel.
A. Real time PCR analysis of ATF6 gene expression following thapsigargin (300 nM) treatment for the indicated time points in 22Rv.1 cell clones with empty vector control (open bars) and peptide-expressing clones (filled bars). The RNA was extracted using PeqGold RNA pure (PeqLab, Germany) kit according to manufacturer’s instructions. For gene expression analysis, the following primers were used: Rib36 forward 5′-[…]-3′; reverse 5′-CCGGATATGAGGCAGCAG-3′; ATF6 forward 5′-[…]-3′; reverse 5′-[…]-3′. Each bar represents the mean of three independent experiments ± SEM. *p<0.05. B. Western blot analysis of ATF6 and its cleaved product (cATF6) in LNCaP cells stably expressing the empty vector control or the Bag-1 peptide. Anti-ATF6 specific antibody and an anti-HA specific antibody were used for the Western blot. β-actin antibody was used to determine equal loading control. Mouse monoclonal anti-ATF6 antibody was purchased from Imgenex (Hamburg, Germany), mouse monoclonal anti-HA antibody (HA.11 clone 16B12) was purchased from Covance (Munich, Germany) and anti-β-actin antibody was purchased from Abcam (Cambridge, UK). (TIF) Click here for additional data file.
Supplementary file pone.0045690.s004.tif: Figure S4 The Bag-1 peptide induces GCN2 phosphorylation. 22Rv.1 cells stably expressing the empty vector control or the Bag-1 peptide were treated with thapsigargin (300 nM) for 16 h and subjected to Western blot analysis using anti-phospho-GCN2, GCN2 and HA-specific antibodies. The filters used in this experiment for the GCN2 signals are the same filters used in Figure 3A. The HA-Bag-1 peptide and the β-actin signals are therefore identical to that of Figure 3A. (TIF) Click here for additional data file.

[2] = Bag-1 peptide expressing 22Rv.1 cells, thapsigargin 300 nM, 16 h
[3] = stable Bag-1 peptide expression, 22Rv.1, thapsigargin 300 nM
[4] = stable Bag-1 peptide expression, 22Rv.1, thapsigargin 300 nM, vs vector control

Molecule | PC3 growth in clonogenic assay (PC3 cells) | LNCaP growth in clonogenic assay (LNCaP cells) | PNT-2 growth in clonogenic assay (PNT-2 cells) | RWPE-1 growth in clonogenic assay (RWPE-1 cells) | CHOP expression ([1]; Bag-1 peptide expressing 22Rv.1 cells, thapsigargin 300 nM) | GCN2 [1, 2] | GCN2 phosphorylation [1, 2] | ATF4 activation [1, 3] | eIF2α phosphorylation [1, 3] | thapsigargin-induced expression of GRP78/BiP [1, 3] | cleaved ATF6 [1, 4] | phosphorylation of PERK and IRE1 [1, 4]
19-mer: Bag-1L 202–220 (TPLSALGIQDGCRVMLIGK; not fully specified) | inhibited growth | inhibited growth | not growth inhibited | not growth inhibited |  |  |  |  |  |  |  | 
Bag-1 peptide: internal sequence of 68 amino acids of Bag-1 (Bag1-L 202–269), HA-tagged, expressed from pcDNA3 (also: HA tag, end not given here) TPLSALGIQDGCRVMLIGKKNSPQEEVELKKLKHLEKSVEKIADQLEELNKELTGIQQGFLPKDLQAE |  |  |  |  | increased expression of the pro-apoptotic factor CHOP | upregulated in the peptide expressing cells | enhanced phosphorylation of GCN2 | activation of the downstream target ATF4 | increase in eIF2α phosphorylation | inhibition of the thapsigargin-induced expression of GRP78/BiP | significant reduction of cleaved ATF6 | reduced ER stress-induced phosphorylation of PERK and IRE1
